Experimental data published in patent US20250376535A1 (BEIJING STARMAB BIOMED TECHNOLOGY, published 2025).

Columns and labels:
4-1BB Fc [1] = target: T1, 4-1BB Fc (human, UniProt Q07011 24-183); assay: ELISA, 4-1BB Fc coated, VHH at 5 nM
T1 construct: also called rh-41BB; 41BB-hFc
Experimental: (§1) After four rounds of washing with PBST, the plate was incubated with detecting antibody anti-his-HRP (1:4000 dilution) 100 μl per well for one hour with shaking at 60 rpm. The plate was developed with 100 μL of TMB per well in the dark and then stopped by 50 μL of stop solution per well. […] Data was analyzed using GraphPad Prisma 9.1.

4-1BB Fc [2] = target: T1, 4-1BB Fc; assay: ELISA, 4-1BB Fc coated, VHH at 50 nM
Experimental: as §1

4-1BB Fc [3] = target: T1, 4-1BB Fc; assay: ELISA, 4-1BB Fc coated, VHH at 0.5 nM
Experimental: as §1

4-1BB Fc [4] = target: T1, 4-1BB Fc; assay: ELISA, 4-1BB Fc coated, VHH at 500 nM
Experimental: as §1

4-1BB Fc [5] = target: T1, 4-1BB Fc; assay: ELISA, 4-1BB Fc coated, VHH at 0.05 nM
Experimental: as §1

4-1BB Fc [6] = target: T1, 4-1BB Fc; assay: ELISA, 4-1BB Fc coated, VHH at 0.005 nM
Experimental: as §1

4-1BB Fc [7] = target: T1, 4-1BB Fc; assay: ELISA, 4-1BB Fc coated, VHH at 0.0005 nM
Experimental: as §1

4-1BB Fc [8] = target: T1, 4-1BB Fc; assay: ELISA, 4-1BB Fc coated, VHH at 0.00005 nM
Experimental: as §1

Human 41BB antigen (BLI) = target: T2, Human 41BB antigen (BLI) (human, UniProt Q07011 24-183); assay: BLI, VHH-His on anti-His tips, human 41BB in solution;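 further: association tracked for 200 s, after which dissociation was followed in 1×PBS free of 41BB protein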
T2 construct: also called 41BB protein
T2 sequence (Q07011 24-183 limits assumed): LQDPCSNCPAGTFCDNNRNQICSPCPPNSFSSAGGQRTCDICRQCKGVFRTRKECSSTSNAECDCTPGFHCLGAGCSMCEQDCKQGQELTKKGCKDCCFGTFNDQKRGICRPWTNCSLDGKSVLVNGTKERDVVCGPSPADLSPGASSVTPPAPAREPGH
Experimental: Tips were loaded using 20 μg/ml of anti-41BB VHH. Loading proceeded for 300 sec resulting in capture levels of between 1.8 and 2 nm. […] Association was initiated and monitored for 200 sec, after which tips were transferred to 1×PBS buffer without 41BB protein, in order to monitor dissociation.

human serum albumin = target: T3, human serum albumin (human, UniProt P02768 25-609); assay: BLI (Gator), His-tagged VHH on anti-His sensor, HSA 100 nM in solution
T3 construct: also called HSA
Experimental: (§2) Kinetic binding analysis of MSA VHHs were performed with Gator Prime system equipped with analyze software. […] The experiments were done at 30° C. Prior to analysis, sensors were socked in Q buffer for 600 sec with shaking at 1000 rpm, and then 2 μM of HIS tagged MSA VHHs were loaded to Anti-His sensors with shaking at 400 rpm for 120 sec. Loaded sensors were transferred into Q buffer for 60 sec. Association of HSA or MSA at 100 nM was initiated and monitored for 120-180 sec with shaking at 1000 rpm, and finally dissociation in Q buffer for 120-180 sec with 1000 rpm shaking. Software V2.0 (Gator Bio) was used for data analysis. The on-rate (Kₒₙ) and off-rate (Kd) were determined by fitting of the association and dissociation phases of each sample. The mathematical model used assumes a 1:1 stoichiometry, fitting only one analyte in solution binding to one binding site on the surface. The equilibrium dissociation constant (KD), a measure for affinity, was then calculated as the ratio of Kd and Kₒₙ.

murine serum albumin = target: T4, murine serum albumin (murine, UniProt P07724 25-608); assay: BLI (Gator), His-tagged VHH on anti-His sensor, murine serum albumin 100 nM in solution
T4 construct: As antigen 'MSA' means murine serum albumin; the VHHs also carry the label MSA; also called MSA
Experimental: as §2

[9] = target: T5, recombinant human CD40-Fc (human, UniProt P25942 21-193); assay: ELISA, CD40-Fc coated, VHH at 8 nM
T5 construct: also called rh-CD40-Fc; CD40-hFc
T5 sequence (P25942 21-193): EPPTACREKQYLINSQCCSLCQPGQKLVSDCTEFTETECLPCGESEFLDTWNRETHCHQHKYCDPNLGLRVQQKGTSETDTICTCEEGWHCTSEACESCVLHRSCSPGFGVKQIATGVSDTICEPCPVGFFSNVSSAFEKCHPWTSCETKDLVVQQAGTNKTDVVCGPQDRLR
Experimental: (§3) After four times washing with PBST, the plate was incubated with detecting antibody anti-his-HRP (1:4000 dilution) 100 μl per well for one hour with shaking at 60 rpm. The plate was developed with 100 μL of TMB per well in the dark and then stopped by 50 μL of stop solution per well.

[10] = target: T5, recombinant human CD40-Fc; assay: ELISA, CD40-Fc coated, VHH at 40 nM
Experimental: as §3

[11] = target: T5, recombinant human CD40-Fc; assay: ELISA, CD40-Fc coated, VHH at 1.6 nM
Experimental: as §3

[12] = target: T5, recombinant human CD40-Fc; assay: ELISA, CD40-Fc coated, VHH at 200 nM
Experimental: as §3

[13] = target: T5, recombinant human CD40-Fc; assay: ELISA, CD40-Fc coated, VHH at 0.32 nM
Experimental: as §3

[14] = target: T5, recombinant human CD40-Fc; assay: ELISA, CD40-Fc coated, VHH at 1000 nM
Experimental: as §3

[15] = target: T5, recombinant human CD40-Fc; assay: ELISA, CD40-Fc coated, VHH at 0.013 nM
Experimental: as §3

[16] = target: T5, recombinant human CD40-Fc; assay: ELISA, CD40-Fc coated, VHH at 0.064 nM
Experimental: as §3

[17] = target: T5, recombinant human CD40-Fc; assay: ELISA, CD40-Fc coated, VHH at 0.0026 nM
Experimental: as §3

[18] = target: T6, Human CD40 antigen (recombinant, BLI) (human, UniProt P25942 21-193); assay: BLI, VHH-His on anti-His tips, human CD40 in solution;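 further: kinetics measured at 30 °C in PBS pH 7.2, association tracked for 200 s, then dissociation followed in PBS lacking CD40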
T6 construct: also called rh-CD40
T6 sequence (P25942 21-193 limits assumed): as the sequence (P25942 21-193) above
Experimental: Bio-Layer Interferometry (BLI) kinetic binding analysis. […] Affinity measurements were performed with Gator equipped with Anti-Penta-His capture (HIS1K) biosensor tips. The assay was performed at 30° C. in 1×PBS buffer (Gibco®, PBS pH7.2). Samples were agitated at 1000 rpm. Prior to analysis, sensors were humidified for 15 min. […] Sensor data was collected throughout the experiments, processed, and analyzed using the Gator data analysis software.
Briefly, purified anti-CD40 VHH was tested for its binding capacity with HIS1K sensor tips. Tips were loaded using 20 μg/ml of anti-CD40 VHH. Loading proceeded for 300 sec resulting in capture levels of between 1.8 and 2 nm. […] Association was initiated and monitored for 200 sec, after which tips were transferred to 1×PBS buffer without CD40 protein in order to monitor dissociation.

T1 sequence (Q07011 24-183): as the sequence (Q07011 24-183 limits assumed) above

Row | OD450 (4-1BB Fc [1]) | OD450 (4-1BB Fc [2]) | OD450 (4-1BB Fc [3]) | OD450 (4-1BB Fc [4]) | OD450 (4-1BB Fc [5]) | OD450 (4-1BB Fc [6]) | OD450 (4-1BB Fc [7]) | OD450 (4-1BB Fc [8]) | Kd (Human 41BB antigen (BLI)) [nM] | koff (Human 41BB antigen (BLI)) [s⁻¹] | kon (Human 41BB antigen (BLI)) [M⁻¹ s⁻¹] | Binder | also measured
1 | 0.828 | 1.76 | 0.11 | 1.58 | 0.065 | 0.066 | 0.068 | 0.068 | 0.657 | 0.000539 | 820000 | 4-1BB-10 (VHH, not shown: small tags and cut ends) VHH: EVQLVESGGGLVQAGGSLRLSCAASGAIFSYNGMAWYRQAPGKQREFVAVITPDGTTKYGDSVKGRFTISRDITKNTVDLEMNSLKPEDTAVYTCAALRNSGSTSWGQGTQVTVSS | –
2 | – | – | – | – | – | – | – | – | – | – | – | MSA1 (VHH, Llama single domain antibody with C-terminal His-tag, made in HEK293; not shown: C-terminal His-tag) VHH: EVQLVESGGGLAQAGGSLRLSCADSGHSFSLYAMAWFRQTPEKEREFVAAISSSGGDTYYADSVKGRFTISRENAKNTAYLQMDSLKPGDTAVYFCAGNYYTSQLMRGMYEHWGQGTQVTVSS | koff (human serum albumin): 0.0217 s⁻¹; Kd (murine serum albumin): 6.64 nM; koff (murine serum albumin): 0.00117 s⁻¹; kon (murine serum albumin): 176000 M⁻¹ s⁻¹
3 | 0.089 | 0.183 | 0.065 | 0.165 | 0.06 | 0.067 | 0.062 | 0.066 | 1.82 | 0.00129 | 708000 | 4-1BB-3 (VHH, not shown: small tags and cut ends) VHH: EVQLVESGGGLVQAGGSLRLSCAASGNIFSYNGMAWYRQAPGNQRELVAVVAIDGTAKYADTVKGRFTISRDNIKNTVNLEMNSLKPEDTAVYTCAALRNSGSTSWGQGTQVTVSS | –
4 | – | – | – | – | – | – | – | – | – | – | – | pgDD40-SZ-12 (VHH, not shown: small tags and cut ends) VHH: EVQLVESGGGLVQPGGSLKLSCAASGFAFSRYTMSWVRQAPGKGLEWVSGIDSGGGRTSYINSVKGRFTISRDNAKNTLYLQMNSLKPEDTAVYHCAQGGDSGSYYRTSWGQGTQVTVSS | OD450 [9]: 0.09; OD450 [10]: 0.256; OD450 [11]: 0.061; OD450 [12]: 0.895; OD450 [13]: 0.059; OD450 [14]: 1.54; OD450 [15]: 0.058; OD450 [16]: 0.065; OD450 [17]: 0.06; Kd [18]: 1.43 nM; koff [18]: 0.000806 s⁻¹; kon [18]: 564000 M⁻¹ s⁻¹
5 | – | – | – | – | – | – | – | – | – | – | – | pgDD40-SZ-2 (VHH, not shown: small tags and cut ends) VHH: EVQLVESGGALAQPGGSLRLSCEASATIRSVNAMAWYRQGPGKPREMVANITSGDTTYYADSVKGRFTLSREGARNTVYLQMNSLKPEDTAVYQCNIHYTSTGGIRRDYWGRGTQVTVSS | OD450 [9]: 1.59; OD450 [10]: 1.72; OD450 [11]: 0.94; OD450 [12]: 1.52; OD450 [13]: 0.293; OD450 [14]: 1.64; OD450 [15]: 0.062; OD450 [16]: 0.091; OD450 [17]: 0.058; Kd [18]: 0.0047 nM; koff [18]: 3.59e-06 s⁻¹; kon [18]: 765000 M⁻¹ s⁻¹
6 | – | – | – | – | – | – | – | – | – | – | – | pgDD40-SZ-5 (VHH, not shown: small tags and cut ends) VHH: QVQLVESGGALAQPGGSLRLSCEASENVRSVNAMAWYRQGPGKPRELVANITSGDATYYADSVKGRFTLSREGARNTVYLQMNSLKPEDTAVYQCNVHYTSWGGIRRDYWGRGTQVTVSS | OD450 [9]: 1.41; OD450 [10]: 1.68; OD450 [11]: 0.85; OD450 [12]: 1.73; OD450 [13]: 0.25; OD450 [14]: 1.67; OD450 [15]: 0.061; OD450 [16]: 0.085; OD450 [17]: 0.059; Kd [18]: < 0.001 nM; koff [18]: 1e-06 s⁻¹; kon [18]: 784000 M⁻¹ s⁻¹
7 | – | – | – | – | – | – | – | – | – | – | – | MSA B1 (VHH, Llama single domain antibody with C-terminal His-tag, made in HEK293; not shown: C-terminal His-tag) VHH: EVQLVESGGGLVQPGGSLHLSCAASRLTTGVTFSDYGMAWFRQAPGAERELLANINWSGQYTNYRDSVKGRAAIFRDNAKNTLYLNINSLKAEDTAVYYCAASSRKYGPGIKSQYEWWGQGTQVTVSS | Kd (human serum albumin): 11.3 nM; koff (human serum albumin): 0.00511 s⁻¹; kon (human serum albumin): 454000 M⁻¹ s⁻¹; Kd (murine serum albumin): 5.32 nM; koff (murine serum albumin): 0.000605 s⁻¹; kon (murine serum albumin): 114000 M⁻¹ s⁻¹
8 | 0.07 | 0.129 | 0.059 | 0.112 | 0.067 | 0.063 | 0.058 | 0.065 | 2.57 | 0.00252 | 979000 | 4-1BB-2 (VHH, not shown: small tags and cut ends) VHH: QVQLVESGGGLVQAGGSLRLSCAASGSIFSYNAMAWYRQAPGKQRELVALITSDRTTKYADSVKGRFTISRDDTKNTVDLEMNSLKPEDTAVYTCAALLNSARTSWGQGTQVTVSS | –
9 | 1.35 | 3.19 | 0.202 | 4.25 | 0.078 | 0.068 | 0.071 | 0.073 | 29.2 | 0.00919 | 314000 | 4-1BB-36 (VHH, not shown: small tags and cut ends) VHH: EVQLVESGGGLVQPGGSLRLSCAASRRTFSSYTAGWFRQAPGKEREFVASIRWISGTTTYADSVNGRFTISRDIAKNTVYLQMNSLKPDDTAVYYCAVDLSSDNDYDYWGQGTQVTVSS | –
10 | – | – | – | – | – | – | – | – | – | – | – | pgDD40-SZ-3 (VHH, not shown: small tags and cut ends) VHH: QVQLVESGGGLVQAGDSLRLSCTASGRAFNTYTMAWFRQAPGKERDFVAAISRDGTITHYADSVKGRFTTTRDNAKNTMYLQMSSLKYDDTAVYYCAARRVGAVPERESAYEHWGQGTQVTVSS | OD450 [9]: 1.59; OD450 [10]: 1.64; OD450 [11]: 1.02; OD450 [12]: 1.64; OD450 [13]: 0.287; OD450 [14]: 1.57; OD450 [15]: 0.055; OD450 [16]: 0.098; OD450 [17]: 0.055; Kd [18]: 0.106 nM; koff [18]: 7.65e-05 s⁻¹; kon [18]: 722000 M⁻¹ s⁻¹
11 | 0.108 | 0.308 | 0.106 | 0.547 | 0.061 | 0.064 | 0.065 | 0.067 | 3.17 | 0.00264 | 834000 | 4-1BB-1 (VHH, not shown: small tags and cut ends) VHH: QVQLVESGGGLVQAGGSLRLSCAASENIFSFNAMAWYRQAPGKQRELVALITGDGTTKYADSVKGRFTIARLNAKNTVNLEMNSLKPEDTAVYTCAALRNSDRTSWGQGTQVTVSS | –
12 | 0.07 | 0.065 | 0.059 | 0.098 | 0.068 | 0.064 | 0.072 | 0.063 | – | – | – | 4-1BB-39 (VHH, not shown: small tags and cut ends) VHH: QVQLGSLGGGSAQPGGSLRLSCTGSGNVYDFVVMGWYRQFPGRQRELVANITGRASPNYVDSVKGRFTISRDNAQNTVHLQMNNLKVEDSAIYYCYAAQQLTTIAGVMTLDYWGSGTQVTVSS | –
13 | 2.89 | 3.08 | 1.69 | 2.7 | 0.397 | 0.203 | 0.181 | 0.129 | 0.781 | 0.000552 | 707000 | 4-1BB-56 (VHH, not shown: small tags and cut ends) VHH: QVQLVESGGGLVQTGGSLRLSCAASGRISTIDTMFWYRQTPGKERDWVAFIPKDGLPTYVDSVKGRFTVSRDNARNTVYLQMNGLKPEDTAVYYCAVDVQEDRMRTYWGQGTQVTVSS | –
14 | 0.084 | 0.292 | 0.061 | 0.264 | 0.065 | 0.064 | 0.067 | 0.07 | 4.55 | 0.00276 | 606000 | 4-1BB-9 (VHH, not shown: small tags and cut ends) VHH: QVQLVESGGGLVQAGGSLRLSCAASGSIFSYNAVAWYRQAPGKQRELVAVITSGGETTKYADSVKGRFTISRDITKNAVDLQMVSLKPEDTAVYTCAALRNSGSTSWGQGTQVTVSS | –
